According to paper PMC9482650, “Quantitative fragmentomics allow affinity mapping of interactomes” (Nature Communications, 2022):

target: T1, TX1BP3, O14907; test: holdup assay; design: key: below the threshold = too weak to quantify, mostly under pKd 3.1 to 4; settings: plain residues with an end cap or a label only (N-terminal biotin on a linker: ado-ado)
T1 sequence (O14907 10-122, limits assumed, looked up): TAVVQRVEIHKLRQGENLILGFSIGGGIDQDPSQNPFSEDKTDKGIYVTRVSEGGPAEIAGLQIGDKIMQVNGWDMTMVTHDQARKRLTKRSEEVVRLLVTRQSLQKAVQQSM

Binder	pKd
GNSVLKSTQF [SLC22A12, Q96S37]	below the threshold
LPHGHSTTRV [NLGN4X, Q8N0W4]	below the threshold

target: PDZRN4_1, Q6ZMN7; test: holdup assay; design: key: below the threshold = too weak to quantify, mostly under pKd 3.1 to 4; settings: plain residues with an end cap or a label only (N-terminal biotin on a linker: ado-ado)
Sequence (Q6ZMN7 213-318): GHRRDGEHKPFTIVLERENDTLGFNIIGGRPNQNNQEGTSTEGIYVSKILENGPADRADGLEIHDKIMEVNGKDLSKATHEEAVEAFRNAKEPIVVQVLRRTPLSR

Binder	pKd
GNSVLKSTQF [SLC22A12, Q96S37]	below the threshold
LPHGHSTTRV [NLGN4X, Q8N0W4]	below the threshold

target: LNX1_1, Q8TBB1; test: holdup assay; design: key: below the threshold = too weak to quantify, mostly under pKd 3.1 to 4; settings: plain residues with an end cap or a label only (N-terminal biotin on a linker: ado-ado)
Sequence (Q8TBB1 261-371): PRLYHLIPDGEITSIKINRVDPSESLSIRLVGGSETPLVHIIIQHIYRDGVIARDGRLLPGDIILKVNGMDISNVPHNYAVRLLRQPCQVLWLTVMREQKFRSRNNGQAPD

Binder	pKd
GNSVLKSTQF [SLC22A12, Q96S37]	below the threshold
LPHGHSTTRV [NLGN4X, Q8N0W4]	3.79

target: LNX1_3, Q8TBB1; test: holdup assay; design: key: below the threshold = too weak to quantify, mostly under pKd 3.1 to 4; settings: plain residues with an end cap or a label only (N-terminal biotin on a linker: ado-ado)
Sequence (Q8TBB1 500-596): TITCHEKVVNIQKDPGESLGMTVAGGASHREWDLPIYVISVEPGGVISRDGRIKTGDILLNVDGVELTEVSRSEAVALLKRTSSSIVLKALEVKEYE

Binder	pKd
GNSVLKSTQF [SLC22A12, Q96S37]	below the threshold
LPHGHSTTRV [NLGN4X, Q8N0W4]	below the threshold

target: CASK, O14936; test: holdup assay; design: key: below the threshold = too weak to quantify, mostly under pKd 3.1 to 4; settings: plain residues with an end cap or a label only (N-terminal biotin on a linker: ado-ado)
Sequence (O14936 487-570): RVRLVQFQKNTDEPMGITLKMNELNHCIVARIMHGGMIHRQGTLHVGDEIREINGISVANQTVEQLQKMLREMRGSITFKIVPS

Binder	pKd
GNSVLKSTQF [SLC22A12, Q96S37]	below the threshold
LPHGHSTTRV [NLGN4X, Q8N0W4]	below the threshold

target: SCRIB_2, Q14160; test: holdup assay; design: key: below the threshold = too weak to quantify, mostly under pKd 3.1 to 4; settings: plain residues with an end cap or a label only (N-terminal biotin on a linker: ado-ado)
Sequence (Q14160 857-960): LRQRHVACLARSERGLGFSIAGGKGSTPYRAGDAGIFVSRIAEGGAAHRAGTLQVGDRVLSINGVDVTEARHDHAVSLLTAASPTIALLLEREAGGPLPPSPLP

Binder	pKd
GNSVLKSTQF [SLC22A12, Q96S37]	below the threshold
LPHGHSTTRV [NLGN4X, Q8N0W4]	below the threshold

target: Inadl_6, Q8NI35; test: holdup assay; design: key: below the threshold = too weak to quantify, mostly under pKd 3.1 to 4; settings: plain residues with an end cap or a label only (N-terminal biotin on a linker: ado-ado)
Sequence (Q8NI35 1058-1167): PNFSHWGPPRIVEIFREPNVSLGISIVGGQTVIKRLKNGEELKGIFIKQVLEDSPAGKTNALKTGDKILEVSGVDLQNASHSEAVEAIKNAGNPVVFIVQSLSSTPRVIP

Binder	pKd
GNSVLKSTQF [SLC22A12, Q96S37]	below the threshold
LPHGHSTTRV [NLGN4X, Q8N0W4]	below the threshold

target: IL16_4, Q14005; test: holdup assay; design: key: below the threshold = too weak to quantify, mostly under pKd 3.1 to 4; settings: plain residues with an end cap or a label only (N-terminal biotin on a linker: ado-ado)
Sequence (Q14005 1229-1329): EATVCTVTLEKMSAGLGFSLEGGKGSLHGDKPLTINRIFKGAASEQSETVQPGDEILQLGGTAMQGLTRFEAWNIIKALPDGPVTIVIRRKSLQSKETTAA

Binder	pKd
GNSVLKSTQF [SLC22A12, Q96S37]	3.58
LPHGHSTTRV [NLGN4X, Q8N0W4]	3.74

target: GORASP1, Q9BQQ3; test: holdup assay; design: key: below the threshold = too weak to quantify, mostly under pKd 3.1 to 4; settings: plain residues with an end cap or a label only (N-terminal biotin on a linker: ado-ado)
Sequence (Q9BQQ3 1-208): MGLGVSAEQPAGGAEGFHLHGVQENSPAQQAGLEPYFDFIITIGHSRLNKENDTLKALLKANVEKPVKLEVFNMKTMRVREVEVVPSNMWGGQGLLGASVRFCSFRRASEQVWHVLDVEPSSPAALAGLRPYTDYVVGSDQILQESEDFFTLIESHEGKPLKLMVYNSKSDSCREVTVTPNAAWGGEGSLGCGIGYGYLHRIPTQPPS

Binder	pKd
GNSVLKSTQF [SLC22A12, Q96S37]	below the threshold
LPHGHSTTRV [NLGN4X, Q8N0W4]	3.76

target: SCRIB_3, Q14160; test: holdup assay; design: key: below the threshold = too weak to quantify, mostly under pKd 3.1 to 4; settings: plain residues with an end cap or a label only (N-terminal biotin on a linker: ado-ado)
Sequence (Q14160 999-1103): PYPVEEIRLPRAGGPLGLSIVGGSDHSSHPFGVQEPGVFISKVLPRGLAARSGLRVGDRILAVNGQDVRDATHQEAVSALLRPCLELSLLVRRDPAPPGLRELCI

Binder	pKd
GNSVLKSTQF [SLC22A12, Q96S37]	below the threshold
LPHGHSTTRV [NLGN4X, Q8N0W4]	below the threshold

target: GRIP2_7, Q9C0E4; test: holdup assay; design: key: below the threshold = too weak to quantify, mostly under pKd 3.1 to 4; settings: plain residues with an end cap or a label only (N-terminal biotin on a linker: ado-ado)
Sequence (Q9C0E4 934-1023): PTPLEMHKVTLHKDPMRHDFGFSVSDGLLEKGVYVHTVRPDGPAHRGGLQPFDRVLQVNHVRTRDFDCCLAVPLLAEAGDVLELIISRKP

Binder	pKd
GNSVLKSTQF [SLC22A12, Q96S37]	below the threshold
LPHGHSTTRV [NLGN4X, Q8N0W4]	below the threshold

target: MAGI1_1, Q96QZ7; test: holdup assay; design: key: below the threshold = too weak to quantify, mostly under pKd 3.1 to 4; settings: plain residues with an end cap or a label only (N-terminal biotin on a linker: ado-ado)
Sequence (Q96QZ7 1-106): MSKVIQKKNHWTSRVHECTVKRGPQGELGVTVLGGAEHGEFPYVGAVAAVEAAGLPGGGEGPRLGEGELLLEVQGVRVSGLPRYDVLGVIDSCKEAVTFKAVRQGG

Binder	pKd
GNSVLKSTQF [SLC22A12, Q96S37]	below the threshold
LPHGHSTTRV [NLGN4X, Q8N0W4]	below the threshold

target: FRMPD4, Q14CM0; test: holdup assay; design: key: below the threshold = too weak to quantify, mostly under pKd 3.1 to 4; settings: plain residues with an end cap or a label only (N-terminal biotin on a linker: ado-ado)
Sequence (Q14CM0 67-160): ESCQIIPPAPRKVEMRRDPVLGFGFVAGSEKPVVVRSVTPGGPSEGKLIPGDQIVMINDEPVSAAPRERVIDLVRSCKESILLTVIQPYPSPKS

Binder	pKd
GNSVLKSTQF [SLC22A12, Q96S37]	below the threshold
LPHGHSTTRV [NLGN4X, Q8N0W4]	below the threshold

target: DLG4_3, P78352; test: holdup assay; design: key: below the threshold = too weak to quantify, mostly under pKd 3.1 to 4; settings: plain residues with an end cap or a label only (N-terminal biotin on a linker: ado-ado)
Sequence (P78352 306-403): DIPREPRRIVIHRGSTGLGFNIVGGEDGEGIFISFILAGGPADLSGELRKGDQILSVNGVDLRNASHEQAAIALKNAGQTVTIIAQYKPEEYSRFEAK

Binder	pKd
GNSVLKSTQF [SLC22A12, Q96S37]	below the threshold
LPHGHSTTRV [NLGN4X, Q8N0W4]	4.04

target: T2, GRIP1_3, Q9Y3R0; test: holdup assay; design: key: below the threshold = too weak to quantify, mostly under pKd 3.1 to 4; settings: plain residues with an end cap or a label only (N-terminal biotin on a linker: ado-ado)
T2 sequence (Q9Y3R0 247-346, limits assumed, looked up): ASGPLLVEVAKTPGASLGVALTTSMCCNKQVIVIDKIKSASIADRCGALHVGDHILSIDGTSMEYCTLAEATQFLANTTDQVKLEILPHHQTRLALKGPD

Binder	pKd
GNSVLKSTQF [SLC22A12, Q96S37]	below the threshold
LPHGHSTTRV [NLGN4X, Q8N0W4]	below the threshold

target: SNX27, Q96L92; test: holdup assay; design: key: below the threshold = too weak to quantify, mostly under pKd 3.1 to 4; settings: plain residues with an end cap or a label only (N-terminal biotin on a linker: ado-ado)

Binder	pKd
GNSVLKSTQF [SLC22A12, Q96S37]	4.95
LPHGHSTTRV [NLGN4X, Q8N0W4]	5.18

target: T3, GRIP1_5, Q9Y3R0; test: holdup assay; design: key: below the threshold = too weak to quantify, mostly under pKd 3.1 to 4; settings: plain residues with an end cap or a label only (N-terminal biotin on a linker: ado-ado)
T3 sequence (Q9Y3R0 568-668, limits assumed, looked up): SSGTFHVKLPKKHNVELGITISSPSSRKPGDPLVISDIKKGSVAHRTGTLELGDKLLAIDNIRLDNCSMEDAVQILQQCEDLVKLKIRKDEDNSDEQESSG

Binder	pKd
GNSVLKSTQF [SLC22A12, Q96S37]	below the threshold
LPHGHSTTRV [NLGN4X, Q8N0W4]	below the threshold

target: T4, SNTB1, Q13884; test: holdup assay; design: key: below the threshold = too weak to quantify, mostly under pKd 3.1 to 4; settings: plain residues with an end cap or a label only (N-terminal biotin on a linker: ado-ado)
T4 sequence (Q13884 107-205, limits assumed, looked up): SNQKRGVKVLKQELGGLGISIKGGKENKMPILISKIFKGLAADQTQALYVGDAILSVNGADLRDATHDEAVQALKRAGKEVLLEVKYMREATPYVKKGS

Binder	pKd
GNSVLKSTQF [SLC22A12, Q96S37]	below the threshold
LPHGHSTTRV [NLGN4X, Q8N0W4]	4.27

target: T5, RADIL, Q96JH8; test: holdup assay; design: key: below the threshold = too weak to quantify, mostly under pKd 3.1 to 4; settings: plain residues with an end cap or a label only (N-terminal biotin on a linker: ado-ado)
T5 sequence (Q96JH8 971-1071, limits assumed, looked up): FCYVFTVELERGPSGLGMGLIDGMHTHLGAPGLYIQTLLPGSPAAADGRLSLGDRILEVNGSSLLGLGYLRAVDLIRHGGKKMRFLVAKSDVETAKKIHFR

Binder	pKd
GNSVLKSTQF [SLC22A12, Q96S37]	below the threshold
LPHGHSTTRV [NLGN4X, Q8N0W4]	3.7

target: T6, APBA2_2, Q99767; test: holdup assay; design: key: below the threshold = too weak to quantify, mostly under pKd 3.1 to 4; settings: plain residues with an end cap or a label only (N-terminal biotin on a linker: ado-ado)
T6 sequence (Q99767 654-744, limits assumed, looked up): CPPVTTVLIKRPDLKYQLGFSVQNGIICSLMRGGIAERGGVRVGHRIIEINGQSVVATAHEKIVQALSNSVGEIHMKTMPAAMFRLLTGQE

Binder	pKd
GNSVLKSTQF [SLC22A12, Q96S37]	below the threshold
LPHGHSTTRV [NLGN4X, Q8N0W4]	below the threshold

target: LNX1_2, Q8TBB1; test: holdup assay; design: key: below the threshold = too weak to quantify, mostly under pKd 3.1 to 4; settings: plain residues with an end cap or a label only (N-terminal biotin on a linker: ado-ado)
Sequence (Q8TBB1 371-470): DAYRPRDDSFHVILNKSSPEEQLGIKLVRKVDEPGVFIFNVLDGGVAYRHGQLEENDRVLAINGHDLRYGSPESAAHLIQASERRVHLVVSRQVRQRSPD

Binder	pKd
GNSVLKSTQF [SLC22A12, Q96S37]	below the threshold
LPHGHSTTRV [NLGN4X, Q8N0W4]	3.54

target: MAGI1_2, Q96QZ7; test: holdup assay; design: key: below the threshold = too weak to quantify, mostly under pKd 3.1 to 4; settings: plain residues with an end cap or a label only (N-terminal biotin on a linker: ado-ado)
Sequence (Q96QZ7 456-580): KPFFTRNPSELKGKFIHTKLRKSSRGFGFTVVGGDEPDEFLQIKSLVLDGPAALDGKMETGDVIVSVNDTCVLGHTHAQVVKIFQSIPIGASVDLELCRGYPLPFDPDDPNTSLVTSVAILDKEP

Binder	pKd
GNSVLKSTQF [SLC22A12, Q96S37]	below the threshold
LPHGHSTTRV [NLGN4X, Q8N0W4]	4.23

target: PICK1, Q9NRD5; test: holdup assay; design: key: below the threshold = too weak to quantify, mostly under pKd 3.1 to 4; settings: plain residues with an end cap or a label only (N-terminal biotin on a linker: ado-ado)
Sequence (Q9NRD5 17-115): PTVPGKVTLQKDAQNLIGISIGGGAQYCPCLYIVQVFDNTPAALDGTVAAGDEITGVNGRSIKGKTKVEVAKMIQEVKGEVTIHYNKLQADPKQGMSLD

Binder	pKd
GNSVLKSTQF [SLC22A12, Q96S37]	4.02
LPHGHSTTRV [NLGN4X, Q8N0W4]	4.27

target: MAGI2_6, Q86UL8; test: holdup assay; design: key: below the threshold = too weak to quantify, mostly under pKd 3.1 to 4; settings: plain residues with an end cap or a label only (N-terminal biotin on a linker: ado-ado)
Sequence (Q86UL8 1141-1229): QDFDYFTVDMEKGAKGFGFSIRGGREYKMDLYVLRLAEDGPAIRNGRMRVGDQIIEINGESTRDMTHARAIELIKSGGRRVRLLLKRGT

Binder	pKd
GNSVLKSTQF [SLC22A12, Q96S37]	below the threshold
LPHGHSTTRV [NLGN4X, Q8N0W4]	below the threshold

target: FRMPD3, Q5JV73; test: holdup assay; design: key: below the threshold = too weak to quantify, mostly under pKd 3.1 to 4; settings: plain residues with an end cap or a label only (N-terminal biotin on a linker: ado-ado)
Sequence (Q5JV73 12-100): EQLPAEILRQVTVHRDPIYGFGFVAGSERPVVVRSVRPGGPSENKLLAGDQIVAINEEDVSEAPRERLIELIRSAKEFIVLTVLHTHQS

Binder	pKd
GNSVLKSTQF [SLC22A12, Q96S37]	below the threshold
LPHGHSTTRV [NLGN4X, Q8N0W4]	below the threshold

target: MAGI2_5, Q86UL8; test: holdup assay; design: key: below the threshold = too weak to quantify, mostly under pKd 3.1 to 4; settings: plain residues with an end cap or a label only (N-terminal biotin on a linker: ado-ado)
Sequence (Q86UL8 915-1017): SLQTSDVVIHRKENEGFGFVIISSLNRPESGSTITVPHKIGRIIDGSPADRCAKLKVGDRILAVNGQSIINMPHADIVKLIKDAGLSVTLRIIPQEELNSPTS

Binder	pKd
GNSVLKSTQF [SLC22A12, Q96S37]	4.3
LPHGHSTTRV [NLGN4X, Q8N0W4]	below the threshold

target: T7, PDZRN3_1, Q9UPQ7; test: holdup assay; design: key: below the threshold = too weak to quantify, mostly under pKd 3.1 to 4; settings: plain residues with an end cap or a label only (N-terminal biotin on a linker: ado-ado)
T7 sequence (Q9UPQ7 244-349, limits assumed, looked up): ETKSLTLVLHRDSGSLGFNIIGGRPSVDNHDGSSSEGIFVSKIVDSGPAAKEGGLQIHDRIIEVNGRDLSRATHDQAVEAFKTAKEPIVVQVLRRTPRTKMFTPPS

Binder	pKd
GNSVLKSTQF [SLC22A12, Q96S37]	below the threshold
LPHGHSTTRV [NLGN4X, Q8N0W4]	3.78

target: Inadl_1, Q8NI35; test: holdup assay; design: key: below the threshold = too weak to quantify, mostly under pKd 3.1 to 4; settings: plain residues with an end cap or a label only (N-terminal biotin on a linker: ado-ado)
Sequence (Q8NI35 113-229): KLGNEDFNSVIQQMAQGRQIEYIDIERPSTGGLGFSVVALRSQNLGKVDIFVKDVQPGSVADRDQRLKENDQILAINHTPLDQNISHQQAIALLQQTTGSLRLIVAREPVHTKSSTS

Binder	pKd
GNSVLKSTQF [SLC22A12, Q96S37]	below the threshold
LPHGHSTTRV [NLGN4X, Q8N0W4]	below the threshold

target: GRIP2_4, Q9C0E4; test: holdup assay; design: key: below the threshold = too weak to quantify, mostly under pKd 3.1 to 4; settings: plain residues with an end cap or a label only (N-terminal biotin on a linker: ado-ado)
Sequence (Q9C0E4 446-548): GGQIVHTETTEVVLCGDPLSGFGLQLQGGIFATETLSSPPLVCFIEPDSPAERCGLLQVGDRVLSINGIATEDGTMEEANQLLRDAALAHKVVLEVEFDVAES

Binder	pKd
GNSVLKSTQF [SLC22A12, Q96S37]	below the threshold
LPHGHSTTRV [NLGN4X, Q8N0W4]	below the threshold

target: DLG4_2, P78352; test: holdup assay; design: key: below the threshold = too weak to quantify, mostly under pKd 3.1 to 4; settings: plain residues with an end cap or a label only (N-terminal biotin on a linker: ado-ado)
Sequence (P78352 155-259): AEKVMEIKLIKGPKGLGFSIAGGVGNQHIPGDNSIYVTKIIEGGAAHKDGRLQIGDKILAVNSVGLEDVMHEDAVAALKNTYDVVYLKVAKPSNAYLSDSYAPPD

Binder	pKd
GNSVLKSTQF [SLC22A12, Q96S37]	below the threshold
LPHGHSTTRV [NLGN4X, Q8N0W4]	3.97
